Source: patent US20030219825A1

Molecular target: melanocortin-1 receptor (MC1R) (human) (UniProt Q01726)
Test: cell-based or functional assay
Conditions: scale: response value

Sequence of UniProt Q01726 (Q01726 whole entry): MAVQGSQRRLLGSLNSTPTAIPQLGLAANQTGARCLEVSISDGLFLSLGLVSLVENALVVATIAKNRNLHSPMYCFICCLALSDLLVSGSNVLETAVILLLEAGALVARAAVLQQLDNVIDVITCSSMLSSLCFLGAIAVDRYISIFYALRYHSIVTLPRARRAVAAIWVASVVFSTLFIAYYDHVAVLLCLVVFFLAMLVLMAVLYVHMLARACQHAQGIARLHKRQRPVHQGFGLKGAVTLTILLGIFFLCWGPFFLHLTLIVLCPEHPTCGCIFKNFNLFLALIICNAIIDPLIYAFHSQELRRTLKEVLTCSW

maximal response value (z value minus background z value, luminescence, 6xCRE-luciferase reporter lawn): 25
Substance: 4-L-norleucine-7-D-phenylalanine-alpha melanocyte stimulating hormone (from UniProt P01189 138-150) (peptide)
